Assay results as given in US20230407373A1 (priority 2020, published 2023).
Like-named read-outs stand apart in the source and are kept apart here.

B1: BAZ1B (protein, UniProt Q9UIG0 1-1483, looked up)
Tyrosine-protein kinase BAZ1B: MAPLLGRKPFPLVKPLPGEEPLFTIPHTQEAFRTREEYEARLERYSERIWTCKSTGSSQLTHKEAWEEEQEVAELLKEEFPAWYEKLVLEMVHHNTASLEKLVDTAWLEIMTKYAVGEECDFEVGKEKMLKVKIVKIHPLEKVDEEATEKKSDGACDSPSSDKENSSQIAQDHQKKETVVKEDEGRRESINDRARRSPRKLPTSLKKGERKWAPPKFLPHKYDVKLQNEDKIISNVPADSLIRTERPPNKEIVRYFIRHNALRAGTGENAPWVVEDELVKKYSLPSKFSDFLLDPYKYMTLNPSTKRKNTGSPDRKPSKKSKTDNSSLSSPLNPKLWCHVHLKKSLSGSPLKVKNSKNSKSPEEHLEEMMKMMSPNKLHTNFHIPKKGPPAKKPGKHSDKPLKAKGRSKGILNGQKSTGNSKSPKKGLKTPKTKMKQMTLLDMAKGTQKMTRAPRNSGGTPRTSSKPHKHLPPAALHLIAYYKENKDREDKRSALSCVISKTARLLSSEDRARLPEELRSLVQKRYELLEHKKRWASMSEEQRKEYLKKKREELKKKLKEKAKERREKEMLERLEKQKRYEDQELTGKNLPAFRLVDTPEGLPNTLFGDVAMVVEFLSCYSGLLLPDAQYPITAVSLMEALSADKGGFLYLNRVLVILLQTLLQDEIAEDYGELGMKLSEIPLTLHSVSELVRLCLRRSDVQEESEGSDTDDNKDSAAFEDNEVQDEFLEKLETSEFFELTSEEKLQILTALCHRILMTYSVQDHMETRQQMSAELWKERLAVLKEENDKKRAEKQKRKEMEAKNKENGKVENGLGKTDRKKEIVKFEPQVDTEAEDMISAVKSRRLLAIQAKKEREIQEREMKVKLERQAEEERIRKHKAAAEKAFQEGIAKAKLVMRRTPIGTDRNHNRYWLFSDEVPGLFIEKGWVHDSIDYRFNHHCKDHTVSGDEDYCPRSKKANLGKNASMNTQHGTATEVAVETTTPKQGQNLWFLCDSQKELDELLNCLHPQGIRESQLKERLEKRYQDIIHSIHLARKPNLGLKSCDGNQELLNFLRSDLIEVATRLQKGGLGYVEETSEFEARVISLEKLKDFGECVIALQASVIKKFLQGFMAPKQKRRKLQSEDSAKTEEVDEEKKMVEEAKVASALEKWKTAIREAQTFSRMHVLLGMLDACIKWDMSAENARCKVCRKKGEDDKLILCDECNKAFHLFCLRPALYEVPDGEWQCPACQPATARRNSRGRNYTEESASEDSEDDESDEEEEEEEEEEEEEDYEVAGLRLRPRKTIRGKHSVIPPAARSGRRPGKKPHSTRRSQPKAPPVDDAEVDELVLQTKRSSRRQSLELQKCEEILHKIVKYRFSWPFREPVTRDEAEDYYDVITHPMDFQTVQNKCSCGSYRSVQEFLTDMKQVFTNAEVYNCRGSHVLSCMVKTEQCLVALLHKHLPGHPYVRRKRKKFPDRLAEDEGDSEPEAVGQSRGRRQKK
B2: RBFOX2 (protein, UniProt O43251 1-390, looked up)
RNA binding protein fox-1 …: MQNEPLTPGYHGFPARDSQGNQEPTTTPDAMVQPFTTIPFPPPPQNGIPTEYGVPHTQDYAGQTGEHNLTLYGSTQAHGEQSSNSPSTQNGSLTTEGGAQTDGQQSQTQSSENSESKSTPKRLHVSNIPFRFRDPDLRQMFGQFGKILDVEIIFNERGSKGFGFVTFENSADADRAREKLHGTVVEGRKIEVNNATARVMTNKKMVTPYANGWKLSPVVGAVYGPELYAASSFQADVSLGNDAAVPLSGRGGINTYIPLISLPLVPGFPYPTAATTAAAFRGAHLRGRGRTVYGAVRAVPPTAIPAYPGVVYQDGFYGADLYGGYAAYRYAQPATATAATAAAAAAAAYSDGYGRVYTADPYHALAPAASYGVGAVASLYRGGYSRFAPY
B3: DHX8 (protein, UniProt Q14562 1-1220, looked up)
ATP-dependent RNA helicase …: MAVAVAMAGALIGSEPGPAEELAKLEYLSLVSKVCTELDNHLGINDKDLAEFVISLAEKNTTFDTFKASLVKNGAEFTDSLISNLLRLIQTMRPPAKPSTSKDPVVKPKTEKEKLKELFPVLCQPDNPSVRTMLDEDDVKVAVDVLKELEALMPSAAGQEKQRDAEHRDRTKKKKRSRSRDRNRDRDRDRERNRDRDHKRRHRSRSRSRSRTRERNKVKSRYRSRSRSQSPPKDRKDRDKYGERNLDRWRDKHVDRPPPEEPTIGDIYNGKVTSIMQFGCFVQLEGLRKRWEGLVHISELRREGRVANVADVVSKGQRVKVKVLSFTGTKTSLSMKDVDQETGEDLNPNRRRNLVGETNEETSMRNPDRPTHLSLVSAPEVEDDSLERKRLTRISDPEKWEIKQMIAANVLSKEEFPDFDEETGILPKVDDEEDEDLEIELVEEEPPFLRGHTKQSMDMSPIKIVKNPDGSLSQAAMMQSALAKERRELKQAQREAEMDSIPMGLNKHWVDPLPDAEGRQIAANMRGIGMMPNDIPEWKKHAFGGNKASYGKKTQMSILEQRESLPIYKLKEQLVQAVHDNQILIVIGETGSGKTTQITQYLAEAGYTSRGKIGCTQPRRVAAMSVAKRVSEEFGCCLGQEVGYTIRFEDCTSPETVIKYMTDGMLLRECLIDPDLTQYAIIMLDEAHERTIHTDVLFGLLKKTVQKRQDMKLIVTSATLDAVKFSQYFYEAPIFTIPGRTYPVEILYTKEPETDYLDASLITVMQIHLTEPPGDILVFLTGQEEIDTACEILYERMKSLGPDVPELIILPVYSALPSEMQTRIFDPAPPGSRKVVIATNIAETSLTIDGIYYVVDPGFVKQKVYNSKTGIDQLVVTPISQAQAKQRAGRAGRTGPGKCYRLYTERAYRDEMLTTNVPEIQRTNLASTVLSLKAMGINDLLSFDFMDAPPMETLITAMEQLYTLGALDDEGLLTRLGRRMAEFPLEPMLCKMLIMSVHLGCSEEMLTIVSMLSVQNVFYRPKDKQALADQKKAKFHQTEGDHLTLLAVYNSWKNNKFSNPWCYENFIQARSLRRAQDIRKQMLGIMDRHKLDVVSCGKSTVRVQKAICSGFFRNAAKKDPQEGYRTLIDQQVVYIHPSSALFNRQPEWVVYHELVLTTKEYMREVTTIDPRWLVEFAPAFFKVSDPTKLSKQKKQQRLEPLYNRYEEPNAWRISRAFRRR
B4: PKP1 (protein, UniProt Q13835 1-747, looked up)
Plakophilin-1: MNHSPLKTALAYECFQDQDNSTLALPSDQKMKTGTSGRQRVQEQVMMTVKRQKSKSSQSSTLSHSNRGSMYDGLADNYNYGTTSRSSYYSKFQAGNGSWGYPIYNGTLKREPDNRRFSSYSQMENWSRHYPRGSCNTTGAGSDICFMQKIKASRSEPDLYCDPRGTLRKGTLGSKGQKTTQNRYSFYSTCSGQKAIKKCPVRPPSCASKQDPVYIPPISCNKDLSFGHSRASSKICSEDIECSGLTIPKAVQYLSSQDEKYQAIGAYYIQHTCFQDESAKQQVYQLGGICKLVDLLRSPNQNVQQAAAGALRNLVFRSTTNKLETRRQNGIREAVSLLRRTGNAEIQKQLTGLLWNLSSTDELKEELIADALPVLADRVIIPFSGWCDGNSNMSREVVDPEVFFNATGCLRKRLGMRELLALVPQRATSSRVNLSSADAGRQTMRNYSGLIDSLMAYVQNCVAASRCDDKSVENCMCVLHNLSYRLDAEVPTRYRQLEYNARNAYTEKSSTGCFSNKSDKMMNNNYDCPLPEEETNPKGSGWLYHSDAIRTYLNLMGKSKKDATLEACAGALQNLTASKGLMSSGMSQLIGLKEKGLPQIARLLQSGNSDVVRSGASLLSNMSRHPLLHRVMGNQVFPEVTRLLTSHTGNTSNSEDILSSACYTVRNLMASQPQLAKQYFSSSMLNNIINLCRSSASPKAAEAARLLLSDMWSSKELQGVLRQQGFDRNMLGTLAGANSLRNFTSRF
B5: KRT6A (protein, UniProt P02538 2-564, looked up)
Keratin, type II cytoskeletal …: ASTSTTIRSHSSSRRGFSANSARLPGVSRSGFSSVSVSRSRGSGGLGGACGGAGFGSRSLYGLGGSKRISIGGGSCAISGGYGSRAGGSYGFGGAGSGFGFGGGAGIGFGLGGGAGLAGGFGGPGFPVCPPGGIQEVTVNQSLLTPLNLQIDPTIQRVRAEEREQIKTLNNKFASFIDKVRFLEQQNKVLETKWTLLQEQGTKTVRQNLEPLFEQYINNLRRQLDSIVGERGRLDSELRGMQDLVEDFKNKYEDEINKRTAAENEFVTLKKDVDAAYMNKVELQAKADTLTDEINFLRALYDAELSQMQTHISDTSVVLSMDNNRNLDLDSIIAEVKAQYEEIAQRSRAEAESWYQTKYEELQVTAGRHGDDLRNTKQEIAEINRMIQRLRSEIDHVKKQCANLQAAIADAEQRGEMALKDAKNKLEGLEDALQKAKQDLARLLKEYQELMNVKLALDVEIATYRKLLEGEECRLNGEGVGQVNISVVQSTVSSGYGGASGVGSGLGLGGGSSYSYGSGLGVGGGFSSSSGRAIGGGLSSVGGGSSTIKYTTTSSSSRKSYKH
B6: HNRNPA261 (protein, UniProt P22626 1-353, looked up)
Heterogeneous nuclear …: MEKTLETVPLERKKREKEQFRKLFIGGLSFETTEESLRNYYEQWGKLTDCVVMRDPASKRSRGFGFVTFSSMAEVDAAMAARPHSIDGRVVEPKRAVAREESGKPGAHVTVKKLFVGGIKEDTEEHHLRDYFEEYGKIDTIEIITDRQSGKKRGFGFVTFDDHDPVDKIVLQKYHTINGHNAEVRKALSRQEMQEVQSSRSGRGGNFGFGDSRGGGGNFGPGPGSNFRGGSDGYGSGRGFGDGYNGYGGGPGGGNFGGSPGYGGGRGGYGGGGPGYGNQGGGYGGGYDNYGGGNYGSGNYNDFGNYNQQPSNYGPMKSGNFGGSRNMGGPYGGGNYGPGGSGGSGGYGGRSRY
B7: DDX21 (protein, UniProt Q9NR30 1-783, looked up)
Nucleolar RNA helicase 2: MPGKLRSDAGLESDTAMKKGETLRKQTEEKEKKEKPKSDKTEEIAEEEETVFPKAKQVKKKAEPSEVDMNSPKSKKAKKKEEPSQNDISPKTKSLRKKKEPIEKKVVSSKTKKVTKNEEPSEEEIDAPKPKKMKKEKEMNGETREKSPKLKNGFPHPEPDCNPSEAASEESNSEIEQEIPVEQKEGAFSNFPISEETIKLLKGRGVTFLFPIQAKTFHHVYSGKDLIAQARTGTGKTFSFAIPLIEKLHGELQDRKRGRAPQVLVLAPTRELANQVSKDFSDITKKLSVACFYGGTPYGGQFERMRNGIDILVGTPGRIKDHIQNGKLDLTKLKHVVLDEVDQMLDMGFADQVEEILSVAYKKDSEDNPQTLLFSATCPHWVFNVAKKYMKSTYEQVDLIGKKTQKTAITVEHLAIKCHWTQRAAVIGDVIRVYSGHQGRTIIFCETKKEAQELSQNSAIKQDAQSLHGDIPQKQREITLKGFRNGSFGVLVATNVAARGLDIPEVDLVIQSSPPKDVESYIHRSGRTGRAGRTGVCICFYQHKEEYQLVQVEQKAGIKFKRIGVPSATEIIKASSKDAIRLLDSVPPTAISHFKQSAEKLIEEKGAVEALAAALAHISGATSVDQRSLINSNVGFVTMILQCSIEMPNISYAWKELKEQLGEEIDSKVKGMVFLKGKLGVCFDVPTASVTEIQEKWHDSRRWQLSVATEQPELEGPREGYGGFRGQREGSRGFRGQRDGNRRFRGQREGSRGPRGQRSGGGNKSNRSQNKGQKRSFSKAFGQ

Test system: HCoV-OC43 gRNA and sgRNA
Type: binding
Conditions: tested against no-probe control, FDR<10%

| Molecule | target (unweighted spectral count, OC43 Probe II capture) (24 hpi, type n_24_v) | target (unweighted spectral count, OC43 Probe II capture) (36 hpi, type n_36_v) |
| --- | --- | --- |
| B1 | 4 |  |
| B2 | 4 | 4 |
| B3 |  | 27 |
| B4 | 4 |  |
| B5 | 4 |  |
| B6 |  | 70 |
| B7 | 7 |  |
